We go through 136 substances from US20250011363A1, “OPTIMIZED SHORTENED PEPTIDE THAT BINDS TO ACETYLCHOLINE RECEPTOR, AND USE THEREOF” (SKINMED CO., LTD., priority 2021, published 2025).

The assay addresses acetylcholine receptor (Homo sapiens, UniProt P02708). Briefly: SPR binding affinity (RU) of optimized 5mer/6mer/7mer peptides, Examples 6-7. Conditions: SPR, peptides tested at 10 μM. As to the method:
Based on the frequencies of occurrence of the top 7 amino acids from Table 7 in Example 5, 600 peptides comprising these amino acids (top combinations) and those comprising the 13 less frequently occurring amino acids (bottom combinations) were synthesized for each series of 5mer, 6mer-1, and 6mer-2. The binding affinity of each sequence for the acetylcholine receptor was measured using Surface Plasmon Resonance (SPR) analysis method. The peptides were tested at a concentration of 10 μM. Additionally, the average binding affinities of the top and bottom combinations in each series are depicted in FIGS. 5-7.
Representative peptides identified in Example 6, two in each library, including 5mers (73, 311) and 6mers-1 (43, 210) and 6mers-2 (136, 233), were compared with the pre-optimized 6mer, 5mer-ND, and Synake.
In general terms: SPR reads the build-up and loss of mass on a sensor chip optically.

Where [1] appears, read: Resonance Units, 5mer Bottom sequence (bottom combinations).

Sequence of acetylcholine receptor (P02708 21-457): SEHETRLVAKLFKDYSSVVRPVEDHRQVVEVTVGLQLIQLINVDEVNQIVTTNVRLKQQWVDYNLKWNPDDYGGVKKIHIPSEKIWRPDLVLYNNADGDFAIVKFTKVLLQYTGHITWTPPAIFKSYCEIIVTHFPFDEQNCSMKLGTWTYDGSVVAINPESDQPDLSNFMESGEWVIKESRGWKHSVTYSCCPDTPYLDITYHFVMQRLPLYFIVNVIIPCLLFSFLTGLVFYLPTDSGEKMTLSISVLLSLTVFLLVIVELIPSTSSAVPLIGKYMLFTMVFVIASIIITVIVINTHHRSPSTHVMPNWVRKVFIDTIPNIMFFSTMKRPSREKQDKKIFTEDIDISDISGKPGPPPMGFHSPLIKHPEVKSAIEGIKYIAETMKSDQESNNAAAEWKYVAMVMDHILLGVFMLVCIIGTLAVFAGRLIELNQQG

In the case of 5mer-848 (RYMVK), the Binding affinity (5mer Bottom sequence) was determined as 12 Ru.
Turning to 5mer-849 (KTWMK), the Binding affinity (5mer Bottom sequence) was 15 Ru.
Still for that read-out and setting: then 5mer-850 (KYDIR), with 13 Ru; and 5mer-851 (KMCWK), with 19 Ru.
Still for that read-out and setting: then 5mer-852 (KDSMK), with 22 Ru; and 5mer-853 (RYHIK), with 13 Ru.
Still for that read-out and setting: then 5mer-854 (RNTER), with 21 Ru.
In the case of 5mer-855 (RFMKK), the Binding affinity (5mer Bottom sequence) is given as 18 Ru.
5mer-856 (KPPDR): the Binding affinity (5mer Bottom sequence) is reported as 23 Ru.
Take 5mer-857 (KMENR): the Binding affinity (5mer Bottom sequence) is reported as 23 Ru.
Turning to 5mer-858 (RIMGR), the Binding affinity (5mer Bottom sequence) stood at 33 Ru.
Consider 5mer-859 (KHNAR), for which, under “5mer Bottom sequence”, the Binding affinity is 26 Ru.
In the case of 5mer-860 (RCHAK), the Binding affinity (5mer Bottom sequence) amounted to 31 Ru.
As to 5mer-861 (KTKIR), the Binding affinity (5mer Bottom sequence) came to 20 Ru.
For the substance 5mer-862 (KKNAK), the Binding affinity (5mer Bottom sequence) is reported as 19 Ru.
For the substance 5mer-863 (REANR), the Binding affinity (5mer Bottom sequence) is 16 Ru.
Take 5mer-864 (KYHPR): the Binding affinity (5mer Bottom sequence) is 25 Ru.
Turning to 5mer-865 (RMMER), the Binding affinity (5mer Bottom sequence) turned out to be 21 Ru.
Take 5mer-866 (RINWR): the Binding affinity (5mer Bottom sequence) was found to be 11 Ru.
On to 5mer-867 (KDSWK), for which, where the note is “5mer Bottom sequence”, the Binding affinity was determined as 14 Ru.
5mer-868 (KMHFK): the Binding affinity (5mer Bottom sequence) stood at 18 Ru.
Turning to 5mer-869 (KKHPK), under “5mer Bottom sequence”, the Binding affinity is 31 Ru.
Regarding 5mer-870 (RCKVK), the Binding affinity (5mer Bottom sequence) is 25 Ru.
On to 5mer-871 (RHSHR), for which the Binding affinity (5mer Bottom sequence) is recorded as 21 Ru.
As to 5mer-872 (RKKWK), the Binding affinity (5mer Bottom sequence) is 29 Ru.
In the case of 5mer-873 (RYNFR), the Binding affinity (5mer Bottom sequence) turned out to be 32 Ru.
5mer-874 (RIHMR): the Binding affinity (5mer Bottom sequence) amounted to 27 Ru.
For the substance 5mer-875 (KHCNK), the Binding affinity (5mer Bottom sequence) worked out at 33 Ru.
For 5mer-876 (KETAR), the Binding affinity (5mer Bottom sequence) was 16 Ru.
Same read-out and setting: next, 5mer-877 (RFSMR): 17 Ru; 5mer-878 (KHTER): 24 Ru.
Turning to 5mer-879 (KDCMK), the Binding affinity (5mer Bottom sequence) turned out to be 13 Ru.
For 5mer-880 (RCDKK), the Binding affinity (5mer Bottom sequence) came out at 17 Ru.
Take 5mer-881 (RNDAK): the Binding affinity (5mer Bottom sequence) worked out at 31 Ru.
As for 5mer-882 (REEGR), where the note is “5mer Bottom sequence”, the Binding affinity is 18 Ru.
On to 5mer-883 (KMSAK), for which the Binding affinity (5mer Bottom sequence) was 16 Ru.
With 5mer-884 (KIWEK), where the note is “5mer Bottom sequence”, the Binding affinity is 28 Ru.
5mer-885 (RHCNR): the Binding affinity (5mer Bottom sequence) turned out to be 19 Ru.
Regarding 5mer-886 (RMMFR), the Binding affinity (5mer Bottom sequence) amounted to 21 Ru.
As to 5mer-887 (KTPVR), where the note is “5mer Bottom sequence”, the Binding affinity came to 30 Ru.
As for 5mer-888 (KKCIR), the Binding affinity (5mer Bottom sequence) is recorded as 31 Ru.
As to 5mer-889 (KTPGR), under “5mer Bottom sequence”, the Binding affinity is 25 Ru.
On the same count and under the same terms, then 5mer-890 (KKHFK), with 33 Ru; and 5mer-891 (RKKMK), with 24 Ru; and 5mer-892 (RKPMR), with 29 Ru.
On to 5mer-893 (RIKIK), for which, where the note is “5mer Bottom sequence”, the Binding affinity is 18 Ru.
Same read-out and setting: then 5mer-894 (KMSPR), with 18 Ru.
On to 5mer-895 (RFTKK), for which the Binding affinity (5mer Bottom sequence) is recorded as 18 Ru.
Take 5mer-896 (RYHWR): the Binding affinity (5mer Bottom sequence) was 27 Ru.
Consider 5mer-897 (KFCER), for which the Binding affinity (5mer Bottom sequence) is reported as 30 Ru.
Consider 5mer-898 (RYCMR), for which the Binding affinity (5mer Bottom sequence) worked out at 20 Ru.
For the substance 5mer-899 (RYTFR), for the setting “5mer Bottom sequence”, the Binding affinity turned out to be 31 Ru.
Turning to 5mer-900 (RHSVK), for the setting “5mer Bottom sequence”, the Binding affinity worked out at 29 Ru.
On to 5mer-901 (KCTNR), for which the Binding affinity under setting [1] was 30 Ru.
On to 5mer-902 (REDPK), for which the Binding affinity under setting [1] is 23 Ru.
On the same count and under the same terms, then 5mer-903 (RHHKR), with 21 Ru; and 5mer-904 (KPDPK), with 23 Ru.
With 5mer-905 (RPSPR), under setting [1], the Binding affinity amounted to 30 Ru.
For the substance 5mer-906 (RKHAK), the Binding affinity under setting [1] is recorded as 31 Ru.
Turning to 5mer-907 (KDSVR), under setting [1], the Binding affinity was 18 Ru.
On the same count and under the same terms, then 5mer-908 (RCHFK), with 25 Ru.
Regarding 5mer-909 (RINVK), the Binding affinity under setting [1] came out at 33 Ru.
The same measure, in the same setting: next, 5mer-910 (RPCFR): 17 Ru; 5mer-911 (REHGK): 14 Ru; 5mer-912 (KKMGR): 16 Ru.
Still for that read-out and setting: next, 5mer-913 (KHTFK): 13 Ru; 5mer-914 (RPTMR): 26 Ru; 5mer-915 (KMTHR): 28 Ru.
In the case of 5mer-916 (RCHER), the Binding affinity under setting [1] stood at 12 Ru.
For the substance 5mer-917 (KCAPR), the Binding affinity under setting [1] is recorded as 11 Ru.
As for 5mer-918 (RNNVR), the Binding affinity under setting [1] is 12 Ru.
For 5mer-919 (KNNIK), the Binding affinity under setting [1] worked out at 32 Ru.
Turning to 5mer-920 (KPKIK), the Binding affinity under setting [1] is given as 15 Ru.
Take 5mer-921 (KKKFK): the Binding affinity under setting [1] is 21 Ru.
As for 5mer-922 (RMWKR), the Binding affinity under setting [1] turned out to be 14 Ru.
Take 5mer-923 (KCWMK): the Binding affinity under setting [1] came out at 19 Ru.
On the same count and under the same terms, then 5mer-924 (RNEKK), with 27 Ru.
Take 5mer-925 (KDCFK): under setting [1], the Binding affinity came out at 25 Ru.
For the substance 5mer-926 (RNCWK), under setting [1], the Binding affinity is 22 Ru.
Take 5mer-927 (RDEDR): the Binding affinity under setting [1] was 19 Ru.
For the substance 5mer-928 (KHMVR), under setting [1], the Binding affinity is listed as 27 Ru.
Still for that read-out and setting: then 5mer-929 (KYTFR), with 28 Ru; and 5mer-930 (RAWVR), with 20 Ru; and 5mer-931 (RITER), with 11 Ru.
Regarding 5mer-932 (RTAWK), the Binding affinity under setting [1] was found to be 27 Ru.
The same measure, in the same setting: next, 5mer-933 (RYMKK): 27 Ru.
Regarding 5mer-934 (KMMMR), the Binding affinity under setting [1] stood at 17 Ru.
Still for that read-out and setting: then 5mer-935 (RETFK), with 32 Ru.
The same measure, in the same setting: then 5mer-936 (RNHKR), with 29 Ru; and 5mer-937 (KASNR), with 21 Ru.
With 5mer-938 (RIEFK), the Binding affinity under setting [1] stood at 18 Ru.
As to 5mer-939 (KMHAR), the Binding affinity under setting [1] stood at 24 Ru.
Take 5mer-940 (KCMGK): the Binding affinity under setting [1] came out at 18 Ru.
Regarding 5mer-941 (KNHHR), the Binding affinity under setting [1] is 21 Ru.
As to 5mer-942 (RPSDR), under setting [1], the Binding affinity is recorded as 11 Ru.
For the substance 5mer-943 (KDKGK), the Binding affinity under setting [1] is given as 12 Ru.
Regarding 5mer-944 (RYEFK), under setting [1], the Binding affinity is 25 Ru.
As to 5mer-945 (RYEKR), the Binding affinity under setting [1] was found to be 23 Ru.
Turning to 5mer-946 (KYPWR), the Binding affinity under setting [1] was 32 Ru.
5mer-947 (KDWIR): the Binding affinity under setting [1] is 27 Ru.
Consider 5mer-948 (KDSFK), for which the Binding affinity under setting [1] is given as 18 Ru.
For the substance 5mer-949 (KMKMK), the Binding affinity under setting [1] came to 26 Ru.
Still for that read-out and setting: then 5mer-950 (KDADR), with 22 Ru; and 5mer-951 (RYMGR), with 18 Ru; and 5mer-952 (KTMHK), with 12 Ru.
As to 5mer-953 (RKMAR), the Binding affinity under setting [1] is reported as 23 Ru.
5mer-954 (KTEVK): the Binding affinity under setting [1] is 23 Ru.
Consider 5mer-955 (KNADK), for which the Binding affinity under setting [1] is 14 Ru.
5mer-956 (KPTWK): the Binding affinity under setting [1] was 19 Ru.
Turning to 5mer-957 (RDCER), the Binding affinity under setting [1] worked out at 30 Ru.
As to 5mer-958 (RKWKR), under setting [1], the Binding affinity was 11 Ru.
On to 5mer-959 (KPNMK), for which the Binding affinity under setting [1] was 29 Ru.
For the substance 5mer-960 (RNPGK), the Binding affinity under setting [1] was 14 Ru.
Regarding 5mer-961 (KIANR), the Binding affinity under setting [1] is listed as 32 Ru.
The same measure, in the same setting: then 5mer-962 (RIWKR), with 23 Ru; and 5mer-963 (RAPNK), with 24 Ru.
Take 5mer-964 (KYTDR): under setting [1], the Binding affinity is 22 Ru.
With 5mer-965 (KMEIR), the Binding affinity under setting [1] amounted to 30 Ru.
Consider 5mer-966 (RPSAK), for which the Binding affinity under setting [1] is reported as 32 Ru.
Regarding 5mer-967 (KKTHK), the Binding affinity under setting [1] is listed as 26 Ru.
With 5mer-968 (RIPHR), the Binding affinity under setting [1] was 11 Ru.
For the substance 5mer-969 (RNTVR), the Binding affinity under setting [1] worked out at 27 Ru.
For 5mer-970 (KYMNR), the Binding affinity under setting [1] worked out at 33 Ru.
For the substance 5mer-971 (KMTGK), the Binding affinity under setting [1] amounted to 12 Ru.
Still for that read-out and setting: then 5mer-972 (KYAKR), with 14 Ru; and 5mer-973 (RYWAR), with 12 Ru.
In the case of 5mer-974 (RHMMR), the Binding affinity under setting [1] came out at 26 Ru.
The same measure, in the same setting: next, 5mer-975 (RFAHK): 18 Ru.
The same measure, in the same setting: next, 5mer-976 (RETNR): 16 Ru; 5mer-977 (KNMIR): 16 Ru; 5mer-978 (RYDHK): 30 Ru.
As to 5mer-979 (RHHMK), the Binding affinity under setting [1] is recorded as 23 Ru.
Consider 5mer-980 (RKPHR), for which the Binding affinity under setting [1] was determined as 33 Ru.
The same measure, in the same setting: next, 5mer-981 (KNDKK): 33 Ru.
5mer-982 (KFMHK): the Binding affinity under setting [1] was 12 Ru.
On to 5mer-983 (RTTGR), for which, under setting [1], the Binding affinity is 23 Ru.
